{"source": "patent US20250340661A1", "about": "“ANTI CD40 ANTIBODY, ANTIGEN BINDING FRAGMENT AND MEDICAL USE THEREOF” (Jiangsu Hengrui Pharmaceuticals Co., Ltd., priority 2021, published 2025)", "key": {"[1]": {"molecular_target": "T1, CD40 (Homo sapiens, UniProt P25942)", "T1 sequence (P25942 21-277)": "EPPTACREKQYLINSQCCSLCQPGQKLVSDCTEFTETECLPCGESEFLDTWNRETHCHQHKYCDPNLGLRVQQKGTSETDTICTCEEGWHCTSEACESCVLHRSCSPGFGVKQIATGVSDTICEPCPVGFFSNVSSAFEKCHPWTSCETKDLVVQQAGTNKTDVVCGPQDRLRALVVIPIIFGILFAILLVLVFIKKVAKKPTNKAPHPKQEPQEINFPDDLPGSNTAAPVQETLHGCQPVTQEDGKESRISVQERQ", "assay": "HEK-Blue CD40L reporter gene cell activity of humanized anti-CD40 antibodies", "assay_type": "cell-based", "design": "host or cells: HEK-Blue CD40L cells", "conditions": "read-out: IC50 inhibition of CD40 reporter gene cell activity", "protocol": "HEK-Blue CD40L cells were purchased from Invivogen (Cat. #hkb-cd40). The cells were stably transfected with the human CD40 gene and the NF-kB-mediated SEAP genome. The activation level of the CD40 signaling pathway can be characterized by measuring the amount of secreted SEAP in the supernatant using QUANTI-Blue, the substrate of SEAP. In the assays, the inhibitory effects of the CD40 antagonistic antibodies on the CD40L-induced HEK-Blue CD40L cell activation were measured, and the in vitro cell activity of the CD40 antagonistic antibodies was assessed based on IC50. HEK-Blue CD40L cells were cultured in a DMEM medium containing 10% FBS, 100 μg/mL Normocin, 100 μg/mL Zeocin and 30 μg/mL Blasticidin, with 2-3 passages a week. HEK-Blue CD40L cells were plated at 5E4/well into a 96-well cell culture plate (the medium was DMEM, 10% FBS, 100 μg/mL Normocin) and incubated overnight. […] CD40L-his (R&D, 2706-CL-025) and anti-His antibody (R&D, MAB050-500) were added, and the plate was incubated overnight. After cell centrifugation, 20 μL of the cell supernatant was transferred to a new 96-well white plate, and 180 μL of QUANTI-Blue substrate solution was added. The plate was incubated in the dark for 15 min. The absorbance at 620 nm was measured with an Envision microplate reader, and IC50 values were calculated and used to assess the in vitro cell activity of the CD40 antagonistic antibodies."}, "[2]": {"molecular_target": "T1, CD40", "assay": "DC cell activation assay system (monocyte-derived DCs, CD40L stimulation)", "assay_type": "cell-based", "design": "endogenous in cells; host or cells: human PBMCs (CD19+ B cells read out)", "source_text": "CD40 is highly expressed on dendritic cells (DCs), and CD40L, upon binding to CD40, can induce DC activation, up-regulate the expression of multiple activation markers on the DC Cell surface, and promote the secretion of multiple inflammatory factors from DCs, further amplifying immune responses. CD40 antagonistic antibodies block the binding of CD40L to CD40, thereby eliminating the immune activation process of DC cells.\nMonocytes were sorted and enriched from fresh primary human peripheral blood PBMCs using the EsaySep™ human CD14 sorting kit (Stemcell, 19359), and differentiated for 6 days with RPMI-1640 medium (10% FBS, 1% penicillin-streptomycin), 50 ng/mL IL-4 (PeproTech, 200-04) and 50 ng/mL GM-CSF (PeproTech, 300-03). On day 7, the differentiated DC cells were plated at 1E5/well into a 96-well cell culture plate. Serially diluted test antibodies were added to the wells, and the cells were co-incubated at 37° C. in 5% CO2 for 0.5 h. CD40L-his and an anti-His antibody were then added to each well at final concentrations. After 48 h of culture, the level of DC cell activation was measured by flow cytometry: after centrifugation, the supernatant was removed, and the cells were washed twice with FACS buffer (PBS+2% FBS) and stained at room temperature for 15 min with 100 μL of Fixable viability dye EF780 (Invitrogen, 65086514) diluted at 1:1000. The cells were washed twice and then blocked at room temperature for 10 min with 100 μL of human Fc blocker (BD, 564220) diluted at 1:200. After centrifugation, the cells were incubated at 4° C. for 0.5 h with flow cytometry antibodies (Alexa Fluor®700 anti-human CD11c (Biolegend, 337220), Brilliant Violet 421™ anti-human CD80 (Biolegend, 305221), and APC anti-human CD86 (Biolegend, 305412)) diluted at 1:200. After centrifugation, the supernatant was removed, the cells were washed twice with FACS buffer and then resuspended in 200 μL of PBS, and the fluorescence intensity on the cell surface was measured by flow cytometry (BD FACS Celesta).\nIn addition, the level of cytokine secretion in the supernatant was measured after 24 h (TNFα, Cisbio, 62[…]) and 48 h (IL-12/23 p40, Novus, VAL121) of culture. According to the results shown in Table 14 and FIGS. 3A to 3D, 9E6-L4H2 and 2F12-L4H2 have similar DC cell inhibition activity to the control antibody CFZ533.\nWith reference to the method in Example 11, the inhibitory activity of the anti-CD40 antibodies 2F12-L4H2-AAYTE and 9E6-L4H2-AAYTE, which carry the AAYTE mutation in the Fc, in the DC cell activation assay system was measured."}, "[3]": {"molecular_target": "T2, Raji cell surface human CD40 (Homo sapiens, UniProt P25942)", "T2 construct": "Raji cells highly express human CD40 on the cell surface; endogenous in cells; host or cells: Raji cells (Burkitt lymphoma line)", "T2 sequence (P25942 21-277)": "as above", "assay": "FACS binding of humanized anti-CD40 antibodies to Raji cells", "protocol": "Raji cells highly express human CD40 on the cell surface and thus can be used to detect the binding of CD40 antagonistic antibodies to the cell surface human CD40.\nRaji cells were plated at 1.5E5/well, and various concentrations of CD40 antagonistic antibodies were added. The plate was incubated at 4° C. for 1 h. After two washes with FACS buffer (PBS+2% FBS), a secondary antibody (Alexa Flour488 conjugated anti-human IgG (H+L) antibody) was added, and the plate was incubated at 4° C. for 0.5 h.\nAfter two washes with FACS buffer, the fluorescence intensity on the cell surface was measured by flow cytometry (BD FACS Celesta)."}, "[4]": {"test_system": "human CD40 transgenic mice", "assay": "Mouse T cell-dependent humoral immune response (TDAR) model", "assay_type": "in vivo", "conditions": "0.3 mpk BIW ip (IgG1 control 1 mg/kg per Table 15); serum ELISA", "protocol": "On day 0 of the experiment, one of the mice in each group was subjected to blood collection followed by intraperitoneal injection. On day 1, each mouse was intraperitoneally injected with 50 μg of KLH (KLH:complete Freund's adjuvant (CFA)=1:1 emulsified immune complex) for immunization. On day 15 of the experiment, each mouse was intraperitoneally injected with 50 μg of KLH (KLH:incomplete Freund's adjuvant (IFA)=1:1 emulsified immune complex) for a second immunization. Each group was intraperitoneally injected twice a week, and blood samples of about 150 μL were collected from the orbital venous plexus on days 7, 14, 21, and 28. Whole blood was left to stand at room temperature for 1-4 h and centrifuged at 7000 rpm at 4° C. for 10 min to separate serum, and the serum was stored at −80° C. before use.\nMouse serum was separated weekly and assayed by ELISA for the anti-KLH specific IgG level."}}, "data": [{"substance": "CFZ533: anti-CD40 antagonistic antibody (iscalimab), positive control; variable regions from U.S. Pat. No. 8,277,810B [reference compound]", "values": [{"measurement": "IC50", "setting": "[1]; Assay 1", "value": 0.36, "unit": "nM"}, {"measurement": "IC50", "setting": "[1]; Assay 2", "value": 0.35, "unit": "nM"}, {"measurement": "IC50", "setting": "[2]; 48 h culture, read-out: IC50 in DC cell activation assay system, CD80 MFI", "value": 1.19, "unit": "nM"}, {"measurement": "IC50", "setting": "[2]; 48 h culture, read-out: IC50 in DC cell activation assay system, CD86 MFI", "value": 1.93, "unit": "nM"}, {"measurement": "IC50", "setting": "[2]; supernatant, 24 h, read-out: IC50 in DC cell activation assay system, TNFα", "value": 0.35, "unit": "nM"}, {"measurement": "IC50", "setting": "[2]; supernatant, 48 h, read-out: IC50 in DC cell activation assay system, IL-12/23 p40", "value": 0.68, "unit": "nM"}, {"measurement": "EC50", "setting": "[3]", "value": 1.01, "unit": "nM"}, {"measurement": "anti-KLH specific IgG level, Day 7", "setting": "[4]", "value": "0.04 ± 0.01"}, {"measurement": "anti-KLH specific IgG level, Day 14", "setting": "[4]", "value": "30.9 ± 10.8"}, {"measurement": "anti-KLH specific IgG level, Day 21", "setting": "[4]", "value": "845 ± 423"}, {"measurement": "anti-KLH specific IgG level, Day 28", "setting": "[4]", "value": "3043 ± 1600"}]}]}
